Experimental findings from article PMC3942423 (Nature chemical biology, 2009) are described below.

Data set [1] relates to GH92 enzymes. The experiment in a line: EDTA inactivation and metal reactivation. The following applies: all the GH92 enzymes analyzed. The data set is classed as biochemical, Bacteroides thetaiotaomicron.
Substrate in data set [2]: O=[N+]([O-])c1ccc(O[C@H]2O[C@H](CO)[C@@H](O)[C@H](O)[C@@H]2O)cc1
Briefly: 4NP-Man hydrolysis kinetics. The data set is classed as biochemical, Bacteroides thetaiotaomicron. The following applies: other: substrate 4NP-Man.

Substrate in data set [3]: OC[C@H]1O[C@H](O[C@H]2[C@H](O)[C@H](O)[C@@H](O)O[C@@H]2CO)[C@@H](O)[C@@H](O)[C@@H]1O
The experiment in a line: mannobiose hydrolysis kinetics. The data set is classed as biochemical, Bacteroides thetaiotaomicron. The following applies: other: most active mannobiose substrate.

Substrate in data set [4]: OC[C@H]1O[C@H](O[C@@H]2[C@H](O)[C@@H](O)O[C@H](CO)[C@H]2O)[C@@H](O)[C@@H](O)[C@@H]1O
The experiment in a line: purified protein, by the assay type. The following applies: other: most active mannobiose substrate, pH 7.0, 37.0 °C.

`O=C(O)CN(CCN(CC(=O)O)CC(=O)O)CC(=O)O` [EDTA]: the “effect on enzyme activity” value in data set [1] was “inactivated”.

For `[Ca+2]` [calcium], the “recovery of activity after EDTA” value in data set [1] is on record as “fully recovered”.

B1: Bt3965 (Bacteroides thetaiotaomicron VPI-5482) (protein)
chain: MAQTEKLTDYVNPFVGTDGYGNVYPGAQIPFGGIQISPDTDSRFYDAASGYKYNHLTLMGFSLTHLSGTGIPDLGDFLFIPGTGEMKLEPGTHEDPDQGYRSRYSHDKEWASPNYYAVELADYGVKAEMTSGVRSGMFRFTYPESDNAFIMIDMNHTLWQSCEWSNLRMINDSTITGYKLVKGWGPERHVYFTATFSKKLTGLRFVQDKKPVIYNTSRFRSSYEAWGKNLMACISFDTKAGEEVTVKTAISAVSTDGARNNMKELDGLTFNELRAKGEALWEKELGKYTLTADRKTKETFYTSAYHAALHPFIFQDSDGQFRGLDKNIEKAEGFTNYTVFSLWDTYRALHPWFNLVQQEVNADIANSMLAHYDKSVEKMLPIWSFYGNETWCMIGYHAVSVLADMIVKEVKGFDYERAYEAMKTTAMNSNYDCLPEYREMGYVPFDKEAESVSKTLEYAYDDYCIAQAAKKLGKEDDYHYFLNRALSYQTLIDPETKYMRGRDSKGDWRTPFTPVAYQGPGSVHGWGDITEGFTMQYTWYVPQDVQGYINEAGKELFRKRLDELFTVELPDDIPGAHDIQGRIGAYWHGNEPCHHVAYLYNYLKEPWKCQKWIRTIVDRFYGNTPDALSGNDDCGQMSAWYMFNCIGFYPVAPSSNIYNIGSPCAEAITVRMSNGKNIEMTADNWSPKNLYVKELYVNGKKYDKSYLTYDDIRDGVKLRFVMSGKPNYKRAVSDEAVPPSISLPEKTMKYKSSIGF
For orientation: kcat means the maximal rate divided by the concentration of active sites. What is called kcat/Km is the second-order rate constant that governs catalysis at low substrate concentration. For the molecule B1, in data set [2] (enzyme Bt3965, pH 7.0), the kcat came to 0.233 ± 0.00667 s⁻¹ and the kcat/Km turned out to be 233 M⁻¹ s⁻¹. Further, in data set [3] (enzyme Bt3965, pH 7.0), the kcat came out at 1.48 ± 0.113 s⁻¹ and the catalytic efficiency (kcat/Km) was 183 M⁻¹ s⁻¹.

B2: Bt1878 (Bacteroides thetaiotaomicron VPI-5482) (protein)
chain: ETKDYTQYVNTFIGAADNGHTFPGACYPFGMIQTSPVTGAVGWRYCSEYTYQDSLIWGFTQTHLNGTGCMDLGDILVMPVTGTRARAWDAYRSHFPKDKEAATPGYYTVELSDPQVKAELTASIHAALHRYTYHKADSASLLIDLQHGPAWREEQYHSQVNSCEVNWEDAQTLAGHVNNTVWVDQDYFFVMKFNRPVIDSLYLPMGETEKGKRIIATFDLKPGDELMMKVALSTTSVEGAKKNLQAEIPDWNFDGVKLAAHDEWNSYLSRMDVEGTDDEKTNFYTCFYHALIQPNQISDVDGMYRNAADSIVKAGTGTFYSTFSLWDTYRAAHPFYTLMVPERVDDFVNSLIEQGEVQGFLPIWALWGKENFCMIGNHGVSVIAEAYRKGFRGFDAERAFNMVKKTQTVSHPLKSDWEVYTKYGYFPTDLTKAESVSSTLESVYDDYAAADMARRMGKEEDAAYFAKRADYYKNLFDSQTNFMRPRKADGTWKSPFNPSDVGHAESTGGDYTEGNAWQYTWHVQHDVPGLIALFGGEEPFLNKLDSLFTVKLETTQADVTGLIGQYAHGNEPSHHVTYLYALAGRPERTQELIREIFDTQYKNKPDGLCGNDDCGQMSAWYMFSAMGFYPVDPVSGDYVFGAPQLPKIVLHLADGKTFTVIAENLSKEHKYVDSITLNGEPYTKNTISHEDILKGGTLVYKMK
As usually defined, the Km is the concentration of substrate that gives half-maximal velocity. For B2, in data set [4] (enzyme Bt1878), the Michaelis-Menten constant (Km) came out at 2000 ± 380 µM, the kcat came to 0.283 s⁻¹ and the specificity constant (kcat/Km) was determined as 140 M⁻¹ s⁻¹. Moreover, in data set [2] (enzyme Bt1878, pH 7.0), the Km worked out at 900 ± 130 µM, the kcat stood at 0.00133 ± 8.33e-05 s⁻¹ and the kcat/Km was 1.48 M⁻¹ s⁻¹.

B3: Bt4093 (Bacteroides thetaiotaomicron VPI-5482) (protein)
chain: GDYVHQVNTLIGTKGTGLTSGYLYPGATYPYGMVQFTPSYFSKRSGFVINQLSGGGCEHMGNFPTFPVKGKLKMSPDNILNYRINVSEEKGHAGYYEAMVQEDIKAKLTVTERTGMASYEYPADQQYGTIIIGGGISATPIEQAAIVITAPNKCEGYAEGGNFCGLRTPYKVYFVAEFDTDAFETGTWKREELMPNTTFAEGEYSGVYFTFDVNKKKNIQYKIGVSYVSVENARENLKAENAEWDFQKIQNQAEAKWNHYLGMIEVEGTNPDRTTQFYTHLYRSFIHPNVCSDVNGEYMGADFRVHKSRSKHYTSFSNWDTYRTQIQLLSMLDPEVASDIVISHQLFAEQSGGSFPRWVMANIETGVMQGDPTPILIANAYAFGARNYDPKPIFKIMRKGAEEPGSKSQDVETRPGLKQYLDKGYYNASIQLEYTSADFAIGQFALHAVGDEFASWRYFHFARSWKNLYNSDTGWLQSRNPDGSWKSLGEDFRESTYKNYFWMVPYDIAGLVEIIGGKEKAEKRLDEFFTRLDAGYNDAWFASGNEPSFHIPWIYNWIGRPYKTQEIINRVLNEQYSSKIDGLPGNDDLGTMGAWYVFACIGLYPEIPGVGGFTVNTPIFSSVKVHLKKGDIVIKGGSEKDIYIKSMKLNGKSYESTWIDWDQLNSGATIEYRTSGKPDMKWGAKVVPPSFP
For B3, in data set [2] (enzyme Bt4093, pH 7.0), the Michaelis constant (Km) turned out to be 1300 ± 190 µM, the kcat was determined as 0.0112 ± 0.000817 s⁻¹ and the specificity constant (kcat/Km) worked out at 9.08 M⁻¹ s⁻¹. In addition, in data set [3] (enzyme Bt4093, pH 7.0), the Km came out at 35000 ± 2400 µM, the kcat was 1.33 ± 0.065 s⁻¹ and the kcat/Km came out at 38.3 M⁻¹ s⁻¹.

B4: Bt3858 (Bacteroides thetaiotaomicron VPI-5482) (protein)
chain: HTDQTPTKDFVDYVNPYIGNISHLLVPTYPTVHLPNSMLRVYPERGDYTSDRVNGLPVVVTSHRGSSAFNLSPVQGEVSRPIVSYSYDLENITPYSYSVYLDEADIQVEYAPSHQAGIYHISFGTEGDNALVVNTKNGKLVAEEKGVSGYQVIDNTPTKIYLYLETSQLPLRKGVLADGKVDMESKEGSAIALYYGSEKNLNLRYGISFISAEQAKKNLQRDITTYDVKAVADAGRRIWNKTLGKIVIEGGSEDEKEIFYTSLYRTYERMINLSEDGKYYSAFDGKIHEDGGVPFYTDDWIWDTYRATHPLRILIEPQKELDMIRSYIRMAEQSDRRWMPTFPEVTGDSHRMNGNHAVAVIWDAYCKGLKDFDLEAAYEACKGAITEKTLLPWLRCPLTELDKFYQEKGFFPALNPGEEETCKAVHSFERRQAVAVMLGNCYDNWCLAQIARTLNKTDDYKKFMRMSYTYRNVYNAETGFFHPKNKDGKFIEPFDYRYSGGQGARGYYGENNGWIYRWDVQHNPADLIALMGGQASFIERLNQTFNEPLGRSKFDFYHQLPDHTGNVGQFSMANEPCLHIPYLYNYAGQPWMTQKRIRVLLNQWFRNDLMGVPGDEDGGGMTAFVVFSMMGFYPVTPGSPTYNIGSPVFQSAKMEVGDGHYFEIIAENYAPDHKYIQSATLNGTPWNKPWFSHADIQNGGRLVLQMGDKPNKKWGIASDAVPPSSESLPE
Regarding B4, in data set [4] (enzyme Bt3858), the Km was 1400 ± 170 µM, the kcat came out at 40 s⁻¹ and the kcat/Km is 28300 M⁻¹ s⁻¹. Also, in data set [2] (enzyme Bt3858, pH 7.0), the Michaelis-Menten constant (Km) was 270 ± 65 µM, the kcat came out at 0.000417 ± 1.67e-05 s⁻¹ and the kcat/Km is 1.57 M⁻¹ s⁻¹.

B5: Bt3530 (Bacteroides thetaiotaomicron VPI-5482) (protein)
chain: MTPSVAQNTKYVNLFIGTSGDNGQVAPGAAAPFGMVCVCPDNDPRSHAGYDYAVTKVSGISVNRLSGVGCSGGGGNLRIRPVAPSQELHIKKSREKATPGYYSTAFTNGIKTELTATNAMAVERYKFPRSLSAALWIDFASTFEDVATCHYKRISETCIEGYVQAKNVCGHGCYKLYFSLNTSQPFQLEEQKETTACLTFGKKVRSVEVRIGLSALSSELASWECARWEKMDFEDVKSRTADQWEKQLSAIDVKGGKKDDRVIFYTSLYRTYLSPADVSSPDGAYLGTDGKVYISEDFRYYSNWSLWDTFRTKFPLLVLTEPAKMRDMATSLIHLYATGKKDWSTGFESTPTVRTEHAVILLLDAYRKGITNLDFRKGYAGMKQEMERLPMRSPDQKMESAYDLWAMAKIAEIIGEKADSEQYRQRSVSLFEETWKKEFMNVTPAFEVMKNNGLYQGTRWQYRWAAPQYIDKMIEWVGQDSLRLQLTYFFDHHLYNQGNEPDIHVPYLFNRLGAPEKTQQIVRSLMTEPMIHKYGGNSEFKTPYLGKAFKNAPEGYSPEMDEDDGTMSAWYVFGAMGFYPLLVGDEYYDLTSPLFDRVLLRLTNGNVLTIQTEGRKKKDAPIKSIHFNGKKIADYRISHNELIKGGELIYNYK
B5: in data set [3] (enzyme Bt3530, pH 7.0), the turnover number (kcat) worked out at 0.001 ± 8.33e-05 s⁻¹ and the kcat/Km was found to be 1.58 M⁻¹ s⁻¹.

B6: Bt4073 (Bacteroides thetaiotaomicron VPI-5482) (protein)
chain: GVVTEDLIPTDYVNPFIGASTSVGAAGVYHGLGKTFPGATTPYGMVQVSPNTITGGDNSSGYSDEHKTIEGFAFTQMSGVGWFGDLGNFLVMPTTGELQKIAGKEDGSIKGYRSSYDKATETAKAGYYSVELTDYKIKVESSATPHCGILQFTFPSNEQSRIQIDLARRVGGTSTSQYVKVLDDYTIQGWMKCTPDGGGWGNGEGNSDYTVYYYAQFSKPLSNYGFWSADIPDEWVRKRDEVVSIPYLTRISQAPVIKDKKELEGKHLGFFTEFPTKEGEQVEMKVGISFVDMEGAANNFKQEIASKNFAQVKQEASDLWNKELSRIRISGGTDDEKTVFYTSLYHTMIDPRIYTDVDGRYIGGDKKVHEQDGTFTKRTIFSGWDVFRSQFPLQAMINPRLVSDALNSLITMADQSRREYYERWELLNSYSGCMIGNPALSVLADAYMKGIRTYDVEKAYQYAVNTSAKFGNDSLGYTPEPLSISYTLEYAYADWCVAQLAKALGKEEDAKRFYEKGQAYRNMFDAEKGWFRPRNADGSWKAWPENALTEEWYGCIESNAYQQGWFVPHDVPGMVELMGGKEEVIANLTNLFDHTPSDMLWNDYYNHANEPVHFVPFLFNQLDVPWYTQKWTRYICKNAYANKVEGIVGNEDVGQMSAWYILAASGIHPSCPGNTRMEITSPVFDKVEFNLDSKYHQGKVFTIIAHNNNTNNLYIQKALLNGKEYNKCYLDFAEIAAGGTLELFMGDKPNTEWGVLSNI
With B6, in data set [2] (enzyme Bt4073, pH 7.0), the Km was 1800 ± 210 µM, the kcat was determined as 0.0045 ± 0.000233 s⁻¹ and the kcat/Km amounted to 2.33 M⁻¹ s⁻¹. For the same molecule, in data set [3] (enzyme Bt4073, pH 7.0), the Km was 270 ± 49 µM, the kcat came to 183 ± 9.33 s⁻¹ and the specificity constant (kcat/Km) was 683000 M⁻¹ s⁻¹.
